Measured values as given in the supplement of paper PMC10065799, “High-throughput profiling of sequence recognition by tyrosine kinases and SH2 domains using bacterial peptide display” (eLife, 2023).

Experiments:
c-Src SH2 = assay: SH2 binding enrichment of the phosphorylated peptide, bacterial display (enrichment ratio); higher = better substrate or ligand; peptides without Tyr show the background
SHP2-C SH2 = assay: as above
Grb2 SH2 = Grb2 SH2 (UniProt P62993); assay: as above
Fes = Fes (UniProt P07332); assay: phosphorylation enrichment, bacterial display (enrichment ratio); higher = better substrate or ligand; peptides without Tyr show the background
FGFR3 = FGFR3 (UniProt P22607); assay: as above
Fer (mouse) = assay: as above
AncSZ = assay: as above
Fyn = Fyn (UniProt P06241); assay: as above
FGFR1 = FGFR1 (UniProt P11362); assay: as above
MERTK = MERTK (UniProt Q12866); assay: as above
EPHB2 = EPHB2 (UniProt P29323); assay: as above
Hck = Hck (UniProt P08631); assay: as above
c-Abl (mouse) = assay: as above
Jak2 = Jak2 (UniProt O60674); assay: as above
c-Src = assay: as above
EPHB1 = EPHB1 (UniProt P54762); assay: as above
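Wherever SH2 binding enrichment of the phosphorylated peptide, bacterial display is given: peptide library displayed on the E. coli surface as eCPX fusions, selected cells deep-sequenced, score is each peptide's frequency after selection divided by its frequency in the input.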
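Wherever phosphorylation enrichment, bacterial display is given: 11-residue human phosphosite peptides and single-mutation variants displayed on the E. coli surface, counted by deep sequencing, each peptide's frequency after selection divided by its frequency in the unselected input library; frequency after pTyr selection over input frequency; kinase dosed for 20-30% of maximal phosphorylation in three min.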

MERTK, sequence (Q12866 whole entry, looked up): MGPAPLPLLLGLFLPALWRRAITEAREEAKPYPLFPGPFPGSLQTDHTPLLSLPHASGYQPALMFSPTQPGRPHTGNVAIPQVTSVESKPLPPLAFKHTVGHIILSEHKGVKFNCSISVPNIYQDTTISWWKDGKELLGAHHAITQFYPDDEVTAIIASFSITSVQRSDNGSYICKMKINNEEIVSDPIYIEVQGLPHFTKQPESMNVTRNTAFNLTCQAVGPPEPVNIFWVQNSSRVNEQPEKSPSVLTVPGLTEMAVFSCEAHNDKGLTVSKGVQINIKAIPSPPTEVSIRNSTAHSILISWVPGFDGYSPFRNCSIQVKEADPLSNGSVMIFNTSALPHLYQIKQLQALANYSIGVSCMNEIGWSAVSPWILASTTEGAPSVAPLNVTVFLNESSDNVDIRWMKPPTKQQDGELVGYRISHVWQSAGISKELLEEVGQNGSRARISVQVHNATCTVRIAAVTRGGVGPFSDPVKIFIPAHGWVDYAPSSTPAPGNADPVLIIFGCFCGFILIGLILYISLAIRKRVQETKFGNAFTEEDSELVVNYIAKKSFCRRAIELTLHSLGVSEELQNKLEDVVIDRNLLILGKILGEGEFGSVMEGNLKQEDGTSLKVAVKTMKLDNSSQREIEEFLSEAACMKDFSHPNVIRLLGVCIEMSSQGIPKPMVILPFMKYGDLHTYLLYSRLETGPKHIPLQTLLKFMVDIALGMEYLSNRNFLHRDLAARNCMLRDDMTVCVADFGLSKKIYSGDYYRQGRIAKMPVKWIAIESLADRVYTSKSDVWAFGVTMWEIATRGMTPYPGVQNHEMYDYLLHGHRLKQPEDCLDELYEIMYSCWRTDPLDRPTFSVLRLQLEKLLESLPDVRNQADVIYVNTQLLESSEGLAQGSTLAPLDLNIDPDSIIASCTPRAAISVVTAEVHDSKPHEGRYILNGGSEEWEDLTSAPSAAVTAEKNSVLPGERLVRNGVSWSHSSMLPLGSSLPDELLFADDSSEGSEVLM
EPHB2, sequence (P29323 whole entry, looked up): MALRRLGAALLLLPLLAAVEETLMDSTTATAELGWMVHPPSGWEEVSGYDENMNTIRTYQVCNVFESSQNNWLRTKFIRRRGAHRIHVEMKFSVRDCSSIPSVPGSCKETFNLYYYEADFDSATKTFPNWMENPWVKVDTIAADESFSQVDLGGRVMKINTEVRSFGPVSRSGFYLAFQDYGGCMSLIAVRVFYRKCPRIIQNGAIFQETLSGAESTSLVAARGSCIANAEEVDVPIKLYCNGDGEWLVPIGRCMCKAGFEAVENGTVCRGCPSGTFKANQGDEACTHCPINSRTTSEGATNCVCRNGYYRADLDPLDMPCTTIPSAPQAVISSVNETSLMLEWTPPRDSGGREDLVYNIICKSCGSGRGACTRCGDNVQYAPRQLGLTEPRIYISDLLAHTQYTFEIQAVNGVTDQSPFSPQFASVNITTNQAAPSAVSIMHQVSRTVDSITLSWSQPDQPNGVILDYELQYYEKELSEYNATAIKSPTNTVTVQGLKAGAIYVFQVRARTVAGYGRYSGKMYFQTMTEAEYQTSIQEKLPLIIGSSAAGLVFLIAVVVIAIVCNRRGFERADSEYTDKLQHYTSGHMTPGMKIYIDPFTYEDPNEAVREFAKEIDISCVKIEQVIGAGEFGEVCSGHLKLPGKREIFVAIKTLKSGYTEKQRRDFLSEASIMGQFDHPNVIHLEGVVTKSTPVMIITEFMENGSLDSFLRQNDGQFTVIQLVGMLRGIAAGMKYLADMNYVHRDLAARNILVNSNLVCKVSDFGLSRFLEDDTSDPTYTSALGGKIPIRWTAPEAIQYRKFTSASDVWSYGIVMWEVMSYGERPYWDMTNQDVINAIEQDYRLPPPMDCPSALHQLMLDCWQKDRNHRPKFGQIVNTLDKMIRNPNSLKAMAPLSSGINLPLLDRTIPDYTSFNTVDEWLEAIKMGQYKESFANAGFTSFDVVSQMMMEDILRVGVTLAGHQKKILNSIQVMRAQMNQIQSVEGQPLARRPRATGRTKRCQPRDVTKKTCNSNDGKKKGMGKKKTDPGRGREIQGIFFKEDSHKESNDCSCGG
FGFR1, sequence (P11362 whole entry, looked up): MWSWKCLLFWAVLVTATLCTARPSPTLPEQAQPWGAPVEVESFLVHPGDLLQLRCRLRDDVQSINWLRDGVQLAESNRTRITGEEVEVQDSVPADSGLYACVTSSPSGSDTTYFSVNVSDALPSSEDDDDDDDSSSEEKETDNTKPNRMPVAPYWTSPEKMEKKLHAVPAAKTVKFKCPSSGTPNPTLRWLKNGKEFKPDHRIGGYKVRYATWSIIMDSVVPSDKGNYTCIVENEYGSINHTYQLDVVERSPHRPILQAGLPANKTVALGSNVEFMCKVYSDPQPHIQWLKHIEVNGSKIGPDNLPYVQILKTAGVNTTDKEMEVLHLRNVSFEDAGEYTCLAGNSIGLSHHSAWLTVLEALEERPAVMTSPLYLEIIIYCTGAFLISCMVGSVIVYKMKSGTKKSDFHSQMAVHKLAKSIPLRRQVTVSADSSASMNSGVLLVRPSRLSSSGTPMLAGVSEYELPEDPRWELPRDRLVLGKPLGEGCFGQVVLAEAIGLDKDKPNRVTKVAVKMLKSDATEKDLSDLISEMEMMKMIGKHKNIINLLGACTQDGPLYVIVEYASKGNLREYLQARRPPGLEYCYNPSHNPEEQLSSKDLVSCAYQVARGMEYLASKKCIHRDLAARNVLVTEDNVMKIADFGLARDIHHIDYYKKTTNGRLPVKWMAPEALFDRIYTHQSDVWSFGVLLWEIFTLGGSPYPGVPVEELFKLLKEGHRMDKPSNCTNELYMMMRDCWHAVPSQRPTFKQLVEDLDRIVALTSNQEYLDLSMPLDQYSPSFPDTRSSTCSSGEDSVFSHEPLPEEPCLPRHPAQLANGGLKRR
FGFR3, sequence (P22607 whole entry, looked up): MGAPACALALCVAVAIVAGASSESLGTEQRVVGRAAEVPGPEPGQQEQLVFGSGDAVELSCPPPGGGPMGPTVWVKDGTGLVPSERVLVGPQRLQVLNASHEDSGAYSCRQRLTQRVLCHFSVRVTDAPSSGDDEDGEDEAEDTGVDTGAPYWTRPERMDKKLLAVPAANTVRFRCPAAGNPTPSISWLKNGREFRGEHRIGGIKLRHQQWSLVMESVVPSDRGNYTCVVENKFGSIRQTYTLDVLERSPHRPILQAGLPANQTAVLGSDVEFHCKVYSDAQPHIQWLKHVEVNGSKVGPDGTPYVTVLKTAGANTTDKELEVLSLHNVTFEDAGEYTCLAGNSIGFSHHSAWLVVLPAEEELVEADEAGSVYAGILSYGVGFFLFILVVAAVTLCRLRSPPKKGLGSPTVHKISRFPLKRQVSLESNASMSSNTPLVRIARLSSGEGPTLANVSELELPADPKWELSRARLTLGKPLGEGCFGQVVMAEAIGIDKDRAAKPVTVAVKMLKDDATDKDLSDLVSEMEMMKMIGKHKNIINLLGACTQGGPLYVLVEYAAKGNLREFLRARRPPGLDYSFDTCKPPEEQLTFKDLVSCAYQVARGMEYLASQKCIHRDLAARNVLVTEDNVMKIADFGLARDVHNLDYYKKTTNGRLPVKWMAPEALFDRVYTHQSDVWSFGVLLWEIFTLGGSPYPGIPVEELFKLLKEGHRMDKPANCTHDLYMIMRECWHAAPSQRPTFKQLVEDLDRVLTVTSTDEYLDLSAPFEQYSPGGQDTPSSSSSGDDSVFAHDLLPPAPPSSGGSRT
Jak2, sequence (O60674 whole entry, looked up): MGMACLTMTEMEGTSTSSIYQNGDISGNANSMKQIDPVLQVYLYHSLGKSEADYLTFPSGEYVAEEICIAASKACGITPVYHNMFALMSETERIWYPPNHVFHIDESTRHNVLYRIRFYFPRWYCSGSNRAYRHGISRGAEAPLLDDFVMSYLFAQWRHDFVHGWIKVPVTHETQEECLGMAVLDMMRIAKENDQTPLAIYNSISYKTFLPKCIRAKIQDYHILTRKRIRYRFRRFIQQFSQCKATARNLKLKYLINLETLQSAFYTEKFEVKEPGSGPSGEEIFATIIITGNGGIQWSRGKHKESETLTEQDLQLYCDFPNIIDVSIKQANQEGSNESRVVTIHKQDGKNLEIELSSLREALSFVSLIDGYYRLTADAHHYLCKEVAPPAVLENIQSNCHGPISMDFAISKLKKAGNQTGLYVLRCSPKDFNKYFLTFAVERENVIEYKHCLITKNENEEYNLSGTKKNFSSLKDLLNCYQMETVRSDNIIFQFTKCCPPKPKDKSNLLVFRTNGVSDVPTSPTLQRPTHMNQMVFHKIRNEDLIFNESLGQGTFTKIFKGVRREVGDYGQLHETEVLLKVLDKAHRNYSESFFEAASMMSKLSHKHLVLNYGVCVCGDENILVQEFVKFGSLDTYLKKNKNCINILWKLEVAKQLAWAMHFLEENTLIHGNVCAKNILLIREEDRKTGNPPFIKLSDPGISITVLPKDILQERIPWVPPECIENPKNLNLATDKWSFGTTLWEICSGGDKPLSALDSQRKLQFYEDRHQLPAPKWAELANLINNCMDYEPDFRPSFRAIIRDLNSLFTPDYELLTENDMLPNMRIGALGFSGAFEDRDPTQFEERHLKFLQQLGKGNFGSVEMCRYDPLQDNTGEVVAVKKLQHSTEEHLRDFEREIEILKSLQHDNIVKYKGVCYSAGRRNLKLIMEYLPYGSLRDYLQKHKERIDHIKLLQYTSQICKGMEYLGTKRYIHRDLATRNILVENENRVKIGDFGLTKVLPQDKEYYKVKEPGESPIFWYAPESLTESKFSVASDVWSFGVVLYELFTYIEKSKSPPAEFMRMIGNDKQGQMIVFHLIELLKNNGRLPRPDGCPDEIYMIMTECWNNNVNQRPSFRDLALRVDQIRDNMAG
Grb2 SH2, sequence (P62993 whole entry, looked up): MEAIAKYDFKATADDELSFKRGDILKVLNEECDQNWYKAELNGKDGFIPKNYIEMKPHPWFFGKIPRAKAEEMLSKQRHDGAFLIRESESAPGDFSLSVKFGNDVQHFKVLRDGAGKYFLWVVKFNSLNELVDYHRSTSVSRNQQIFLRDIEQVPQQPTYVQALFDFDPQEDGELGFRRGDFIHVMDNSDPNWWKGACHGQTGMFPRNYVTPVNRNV

| Sequence | SH2 binding enrichment (c-Src SH2) | SH2 binding enrichment (SHP2-C SH2) | SH2 binding enrichment (Grb2 SH2) | phosphorylation enrichment (Fes) | phosphorylation enrichment (FGFR3) | phosphorylation enrichment (Fer (mouse)) | phosphorylation enrichment (AncSZ) | phosphorylation enrichment (Fyn) | phosphorylation enrichment (FGFR1) | phosphorylation enrichment (MERTK) | phosphorylation enrichment (EPHB2) | phosphorylation enrichment (Hck) | phosphorylation enrichment (c-Abl (mouse)) | phosphorylation enrichment (Jak2) | phosphorylation enrichment (c-Src) | phosphorylation enrichment (EPHB1) |
| --- | --- | --- | --- | --- | --- | --- | --- | --- | --- | --- | --- | --- | --- | --- | --- | --- |
| NSRFTCKLEVK [USH2A_Y3747_Y3747C_YF] | 0.395 | 0.612 | 0.768 | 1.66 | 1 | 0.533 | 1.45 | 0.378 | 0.563 | 0.449 | 0.618 | 0.508 | 1.48 | 1.79 | 0.504 | 0.629 |
| RSFPSYFTSHV [NEFL_Y442_YF] | 0.73 | 1.08 | 0.888 | 0.887 | 0.634 | 0.525 | 0.869 | 0.65 | 0.899 | 0.629 | 0.761 | 0.477 | 0.772 | 1.8 | 0.481 | 0.672 |
| YEEDSYSHVMA [FDPS_Y388_I391V] | 2.64 | 0.69 | 0.772 | 1.17 | 1.27 | 1.64 | 1.87 | 0.775 | 1.22 | 0.464 | 0.65 | 0.606 | 0.696 | 0.944 | 0.587 | 0.59 |
| ITGNGYFFRVF [MYBPC3_Y1135_I1131T_YF] | 0.457 | 0.735 | 0.75 | 1.08 | 0.595 | 0.416 | 0.906 | 0.358 | 0.451 | 0.305 | 0.493 | 0.377 | 0.647 | 0.99 | 0.31 | 0.496 |
| KIIRRYVSSEG [ANK2_Y3907] | 0.421 | 0.533 | 0.637 | 0.479 | 0.34 | 0.365 | 0.509 | 0.41 | 0.384 | 0.351 | 0.358 | 0.371 | 0.416 | 0.531 | 0.458 | 0.321 |
| FAASSYSFSDL [EMD_Y59_S54F] | 0.825 | 0.631 | 0.864 | 1.15 | 0.663 | 0.547 | 0.813 | 0.558 | 0.548 | 0.78 | 0.517 | 0.64 | 0.707 | 0.849 | 0.639 | 0.643 |
| GRQGIYTENKR [GPR143_Y231_E235K] | 0.61 | 0.762 | 0.874 | 0.585 | 0.477 | 0.346 | 0.723 | 0.372 | 0.477 | 0.53 | 0.347 | 0.437 | 0.46 | 0.527 | 0.529 | 0.349 |
| TSPKSYPSQKH [CAP2_Y316] | 0.538 | 0.433 | 0.823 | 0.526 | 0.497 | 0.45 | 0.613 | 0.434 | 0.357 | 0.44 | 0.359 | 0.363 | 0.53 | 0.463 | 0.466 | 0.364 |
| KLKRSYSSRDI [USP8_Y717_P720R] | 0.531 | 0.651 | 1.13 | 0.464 | 0.368 | 0.371 | 0.45 | 0.329 | 0.289 | 0.432 | 0.409 | 0.327 | 0.51 | 0.51 | 0.458 | 0.351 |
| RLCQDYDIIGP [ANK1_Y1073_T1075I] | 1.29 | 0.781 | 0.703 | 1.26 | 1.84 | 1.81 | 2.56 | 1.6 | 2.35 | 1.26 | 12.7 | 2.46 | 0.663 | 1.17 | 1.47 | 10 |
| TFGQVYKGPHV [TNIK_Y40_R43P_YF] | 0.413 | 0.531 | 0.69 | 0.751 | 0.426 | 0.466 | 0.59 | 0.493 | 0.47 | 0.381 | 0.454 | 0.448 | 0.537 | 0.608 | 0.433 | 0.403 |
| QVMDGYPIPIG [MMP14_Y353_M355I] | 0.5 | 0.587 | 0.826 | 0.715 | 0.572 | 0.56 | 0.686 | 0.592 | 0.406 | 0.482 | 0.755 | 0.566 | 0.46 | 0.554 | 0.3 | 0.596 |
| ASTHVYQIMNH [ITK_Y588] | 14.3 | 0.833 | 0.73 | 0.722 | 0.423 | 1.34 | 0.703 | 1.39 | 0.508 | 1.61 | 0.487 | 2 | 0.623 | 0.55 | 2.58 | 0.991 |
| FFDANCDGKEF [MAPRE2_Y162_Y162C_YF] | 0.54 | 3.8 | 0.687 | 1.27 | 0.662 | 0.521 | 1.26 | 0.973 | 0.455 | 0.472 | 0.62 | 0.58 | 1.09 | 1.11 | 0.537 | 0.573 |
| LVSCAYQVARG [FGFR1_Y605] | 0.644 | 0.728 | 0.883 | 0.89 | 0.577 | 0.505 | 0.867 | 0.487 | 0.462 | 0.424 | 0.612 | 0.609 | 0.641 | 0.657 | 0.577 | 0.61 |
| NTFEKYWLFFQ [GATM_Y103_P105L_YF] | 0.758 | 0.886 | 0.975 | 1.44 | 1 | 0.478 | 1.29 | 0.501 | 0.761 | 0.544 | 0.682 | 0.68 | 1 | 1.2 | 0.538 | 0.721 |
| RRESQYQENRG [LRCH3_Y354] | 0.49 | 0.624 | 0.982 | 0.571 | 0.663 | 0.563 | 0.835 | 0.637 | 0.479 | 0.472 | 0.494 | 0.503 | 0.73 | 0.582 | 0.475 | 0.431 |

| Sequence | SH2 binding enrichment (c-Src SH2) | SH2 binding enrichment (SHP2-C SH2) | SH2 binding enrichment (Grb2 SH2) | phosphorylation enrichment (Fes) | phosphorylation enrichment (FGFR3) | phosphorylation enrichment (Fer (mouse)) | phosphorylation enrichment (AncSZ) | phosphorylation enrichment (Fyn) | phosphorylation enrichment (FGFR1) | phosphorylation enrichment (MERTK) | phosphorylation enrichment (EPHB2) | phosphorylation enrichment (Hck) | phosphorylation enrichment (c-Abl (mouse)) | phosphorylation enrichment (Jak2) | phosphorylation enrichment (c-Src) | phosphorylation enrichment (EPHB1) |
| --- | --- | --- | --- | --- | --- | --- | --- | --- | --- | --- | --- | --- | --- | --- | --- | --- |
| DENWFYTRAAS [RPS19_Y54] | 0.661 | 0.816 | 0.821 | 1.11 | 0.673 | 0.45 | 1.13 | 0.454 | 0.402 | 0.401 | 0.517 | 0.382 | 1.34 | 1.11 | 0.418 | 0.547 |
| SDVDLYQVRTA [PSMD9_Y70] | 0.444 | 0.599 | 0.705 | 0.738 | 0.505 | 0.648 | 0.792 | 1.41 | 0.419 | 0.411 | 0.538 | 4.25 | 0.735 | 0.645 | 1.89 | 0.555 |
| TRVMEYISCLD [CLTCL1_Y1043_R1046C] | 0.545 | 0.478 | 0.626 | 1.18 | 0.843 | 0.592 | 1.18 | 0.521 | 0.599 | 0.507 | 0.749 | 0.647 | 1.08 | 0.995 | 0.457 | 0.661 |
| CTHDLYMIMRE [FGFR3_Y724] | 0.573 | 0.708 | 0.811 | 1.46 | 0.837 | 0.667 | 1.31 | 0.564 | 0.634 | 1.18 | 1.03 | 0.971 | 0.848 | 1.44 | 2.22 | 2.05 |
| PPTYRYERGSR [INPPL1_Y663] | 0.426 | 0.363 | 0.613 | 0.616 | 0.419 | 0.22 | 0.509 | 0.449 | 0.56 | 0.465 | 0.442 | 0.533 | 0.61 | 0.286 | 0.39 | 0.302 |
| DAASNYARGHY [TUBA3E_Y103] | 0.524 | 0.743 | 0.784 | 0.519 | 0.463 | 0.342 | 0.522 | 0.353 | 0.495 | 0.44 | 0.524 | 0.475 | 0.533 | 0.428 | 0.43 | 0.383 |
| PSSNLYFRWLT [CNGA3_Y168_YF] | 0.876 | 1.15 | 1.41 | 1.2 | 1.33 | 1.02 | 1.7 | 0.886 | 1.52 | 4.73 | 0.959 | 1.38 | 0.822 | 3.54 | 1.11 | 0.688 |
| DENWFYTRPAS [RPS19_Y54_A57P] | 1.01 | 0.672 | 0.78 | 1.07 | 0.734 | 0.676 | 1.46 | 0.497 | 0.496 | 0.477 | 0.55 | 0.565 | 0.673 | 1.43 | 0.489 | 0.59 |
| ETLLFYGFRRS [POR_Y564_C566Y_YF] | 0.356 | 0.458 | 0.749 | 1.01 | 0.535 | 0.405 | 0.871 | 0.431 | 0.58 | 0.631 | 0.404 | 0.544 | 0.542 | 0.745 | 0.514 | 0.504 |
| NQDRTYYERVR [SPEN_Y632_S635R] | 3.98 | 1.04 | 0.901 | 0.639 | 0.486 | 0.511 | 0.617 | 0.606 | 0.457 | 0.452 | 0.467 | 2.31 | 0.525 | 0.499 | 0.896 | 0.411 |
| PDSVDYRKKGF [CTSK_Y121_YF] | 0.625 | 0.638 | 0.755 | 0.536 | 0.88 | 0.521 | 0.524 | 0.32 | 0.402 | 0.368 | 0.646 | 0.55 | 0.391 | 0.49 | 0.366 | 0.468 |
| CTLNVYRQLHN [LUZP1_Y1036_S1034N] | 0.382 | 0.708 | 0.796 | 1.28 | 0.749 | 0.516 | 1.05 | 0.459 | 0.558 | 0.475 | 0.585 | 0.551 | 0.739 | 1 | 0.473 | 0.753 |
| EVDETYVPKKF [ALB_Y521_E525K] | 0.613 | 0.775 | 1.06 | 0.952 | 0.518 | 0.371 | 0.947 | 0.454 | 0.385 | 0.404 | 0.372 | 0.446 | 0.607 | 1.01 | 0.408 | 0.685 |
| DKMEAYNIDET [TEKT4_Y210] | 0.528 | 0.685 | 0.82 | 1.29 | 0.83 | 0.584 | 1.32 | 0.568 | 0.56 | 0.459 | 0.618 | 0.583 | 0.755 | 1.04 | 0.492 | 0.604 |
| KDHRDYKFQPR [SOX9_Y172_P170R_YF] | 0.947 | 1.04 | 1.19 | 0.586 | 0.471 | 0.388 | 0.543 | 0.49 | 0.462 | 0.583 | 0.346 | 0.421 | 0.683 | 0.51 | 0.423 | 0.426 |
| EQFELHCEMGS [CBL_Y371_Y371H_YF] | 0.606 | 0.685 | 0.707 | 1.49 | 0.802 | 0.577 | 1.17 | 0.523 | 0.496 | 0.526 | 0.623 | 0.58 | 0.995 | 1.25 | 0.528 | 0.71 |
